{"source": "patent US10562947B2", "about": "“Compositions and methods for preventing or treating diseases, conditions or processes characterized by aberrant fibroblast proliferation and extracellular matrix deposition” (MOERAE MATRIX, INC., priority 2011, dated 2020)", "test_in_all_cases": "Kinase Profiling Assay", "format_in_all_cases": "biochemical", "conditions_in_all_cases": "100 μM peptide", "key": {"DCAMKL2(h)": {"target": "T1, DCAMKL2(h) (Homo sapiens, UniProt Q8N568)", "T1 sequence (Q8N568 1-766)": "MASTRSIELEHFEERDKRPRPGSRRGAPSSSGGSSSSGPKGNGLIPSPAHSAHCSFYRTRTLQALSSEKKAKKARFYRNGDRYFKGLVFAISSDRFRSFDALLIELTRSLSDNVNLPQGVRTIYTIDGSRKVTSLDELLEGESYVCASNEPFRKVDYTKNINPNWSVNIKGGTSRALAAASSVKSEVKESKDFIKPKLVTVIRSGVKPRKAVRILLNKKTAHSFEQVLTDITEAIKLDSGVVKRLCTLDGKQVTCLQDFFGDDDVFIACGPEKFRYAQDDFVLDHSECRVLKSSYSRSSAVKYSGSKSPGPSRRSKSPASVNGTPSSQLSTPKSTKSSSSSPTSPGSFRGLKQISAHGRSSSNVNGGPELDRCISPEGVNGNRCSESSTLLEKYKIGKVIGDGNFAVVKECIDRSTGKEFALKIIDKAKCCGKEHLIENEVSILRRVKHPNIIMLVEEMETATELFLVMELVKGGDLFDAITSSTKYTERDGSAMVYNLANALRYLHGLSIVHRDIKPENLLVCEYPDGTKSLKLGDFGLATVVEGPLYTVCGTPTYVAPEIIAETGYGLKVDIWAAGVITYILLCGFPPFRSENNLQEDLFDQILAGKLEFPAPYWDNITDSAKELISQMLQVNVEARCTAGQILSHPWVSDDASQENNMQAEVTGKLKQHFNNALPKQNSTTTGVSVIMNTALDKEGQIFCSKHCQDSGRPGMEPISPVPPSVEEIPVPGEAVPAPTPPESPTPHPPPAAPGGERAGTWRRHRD", "procedure,_shortened": "(§1)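 Selectivity profiling: MK2-targeting peptides tested on 266 human kinases. All activity determinations done in duplicate.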"}, "GSK3β(h)": {"target": "T2, GSK3β(h) (Homo sapiens, UniProt P49841)", "T2 construct": "purchased Millipore", "T2 sequence (P49841 whole entry)": "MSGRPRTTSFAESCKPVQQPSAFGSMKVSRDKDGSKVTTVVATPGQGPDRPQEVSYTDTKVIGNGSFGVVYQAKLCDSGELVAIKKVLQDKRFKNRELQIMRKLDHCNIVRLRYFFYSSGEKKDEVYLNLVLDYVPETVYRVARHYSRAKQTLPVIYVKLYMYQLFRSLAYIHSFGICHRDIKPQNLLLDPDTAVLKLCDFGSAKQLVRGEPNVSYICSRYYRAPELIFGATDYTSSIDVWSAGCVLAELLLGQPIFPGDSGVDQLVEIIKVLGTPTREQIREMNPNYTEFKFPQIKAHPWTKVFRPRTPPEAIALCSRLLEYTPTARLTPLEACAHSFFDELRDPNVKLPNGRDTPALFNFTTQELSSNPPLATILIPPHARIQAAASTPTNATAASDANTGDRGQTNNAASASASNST", "procedure,_shortened": "as §1"}, "JAK2(h)": {"target": "T3, JAK2(h) (Homo sapiens, UniProt O60674)", "T3 construct": "purchased Millipore", "T3 sequence (O60674 whole entry)": "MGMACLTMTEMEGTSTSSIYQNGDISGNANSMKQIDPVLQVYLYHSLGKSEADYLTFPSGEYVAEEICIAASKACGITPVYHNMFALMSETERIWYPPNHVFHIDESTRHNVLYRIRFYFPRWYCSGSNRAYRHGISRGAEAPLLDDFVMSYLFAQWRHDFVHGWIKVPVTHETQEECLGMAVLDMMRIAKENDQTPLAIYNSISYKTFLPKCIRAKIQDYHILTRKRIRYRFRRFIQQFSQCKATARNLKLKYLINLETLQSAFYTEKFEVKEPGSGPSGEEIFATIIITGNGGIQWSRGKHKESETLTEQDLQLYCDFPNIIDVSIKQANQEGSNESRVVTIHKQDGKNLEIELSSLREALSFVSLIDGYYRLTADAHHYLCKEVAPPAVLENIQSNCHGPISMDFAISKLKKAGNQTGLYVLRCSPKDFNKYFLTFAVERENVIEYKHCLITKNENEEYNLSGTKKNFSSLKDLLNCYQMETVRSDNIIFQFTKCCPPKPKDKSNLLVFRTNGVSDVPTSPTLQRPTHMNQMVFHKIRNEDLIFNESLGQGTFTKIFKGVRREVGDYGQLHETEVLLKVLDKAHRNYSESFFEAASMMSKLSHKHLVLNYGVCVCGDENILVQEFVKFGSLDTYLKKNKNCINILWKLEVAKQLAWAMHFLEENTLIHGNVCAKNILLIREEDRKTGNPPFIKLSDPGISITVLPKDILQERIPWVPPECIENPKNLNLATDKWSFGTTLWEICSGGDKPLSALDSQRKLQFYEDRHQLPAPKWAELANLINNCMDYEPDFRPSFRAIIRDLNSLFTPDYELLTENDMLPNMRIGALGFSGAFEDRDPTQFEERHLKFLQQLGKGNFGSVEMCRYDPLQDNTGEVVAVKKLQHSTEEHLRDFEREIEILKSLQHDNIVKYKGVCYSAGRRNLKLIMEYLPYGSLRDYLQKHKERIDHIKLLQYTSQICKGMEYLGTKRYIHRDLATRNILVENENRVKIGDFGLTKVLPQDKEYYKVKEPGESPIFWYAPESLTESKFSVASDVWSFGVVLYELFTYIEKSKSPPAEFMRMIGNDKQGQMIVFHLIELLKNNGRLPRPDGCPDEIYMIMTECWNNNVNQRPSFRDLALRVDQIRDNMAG", "procedure,_shortened": "as §1"}, "MST1(h)": {"target": "T4, MST1(h) (Homo sapiens, UniProt Q13043)", "T4 sequence (Q13043 1-487)": "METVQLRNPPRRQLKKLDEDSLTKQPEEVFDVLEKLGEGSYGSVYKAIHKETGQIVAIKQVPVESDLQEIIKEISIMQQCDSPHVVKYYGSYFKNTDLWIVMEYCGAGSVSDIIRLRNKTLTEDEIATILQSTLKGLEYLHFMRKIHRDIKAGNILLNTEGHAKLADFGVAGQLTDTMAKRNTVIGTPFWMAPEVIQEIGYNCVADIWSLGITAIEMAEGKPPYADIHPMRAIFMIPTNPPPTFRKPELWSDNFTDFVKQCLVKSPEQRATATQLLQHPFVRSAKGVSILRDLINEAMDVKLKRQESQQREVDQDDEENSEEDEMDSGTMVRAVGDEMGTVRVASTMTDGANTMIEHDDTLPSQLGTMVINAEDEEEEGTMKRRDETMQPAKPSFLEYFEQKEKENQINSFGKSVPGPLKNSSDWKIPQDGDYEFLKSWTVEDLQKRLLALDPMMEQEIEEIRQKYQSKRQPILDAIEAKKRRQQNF", "procedure,_shortened": "as §1"}, "PKCι(h)": {"target": "T5, PKCι(h) (Homo sapiens, UniProt P41743)", "T5 construct": "purchased Millipore (IC50 Profiler Express service)", "T5 sequence (P41743 1-596)": "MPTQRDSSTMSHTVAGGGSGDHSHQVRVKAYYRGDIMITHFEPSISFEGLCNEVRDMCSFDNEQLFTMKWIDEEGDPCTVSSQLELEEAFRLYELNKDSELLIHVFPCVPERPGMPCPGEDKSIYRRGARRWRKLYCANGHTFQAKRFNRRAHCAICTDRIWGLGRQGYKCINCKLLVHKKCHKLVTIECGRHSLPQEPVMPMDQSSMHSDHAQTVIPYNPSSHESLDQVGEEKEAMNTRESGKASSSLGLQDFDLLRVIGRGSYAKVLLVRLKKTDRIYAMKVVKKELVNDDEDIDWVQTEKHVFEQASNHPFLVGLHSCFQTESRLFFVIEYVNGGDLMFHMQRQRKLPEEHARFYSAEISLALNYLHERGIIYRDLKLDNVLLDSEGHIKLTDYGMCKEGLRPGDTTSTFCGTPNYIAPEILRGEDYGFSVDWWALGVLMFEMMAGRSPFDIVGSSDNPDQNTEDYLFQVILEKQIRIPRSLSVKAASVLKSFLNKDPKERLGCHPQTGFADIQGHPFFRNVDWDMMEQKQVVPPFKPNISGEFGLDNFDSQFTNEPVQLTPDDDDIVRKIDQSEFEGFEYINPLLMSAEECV", "procedure,_shortened": "as §1"}, "Plk3(h)": {"target": "T6, Plk3(h) (Homo sapiens, UniProt Q9H4B4)", "T6 construct": "purchased Millipore (IC50 Profiler Express service)", "T6 sequence (Q9H4B4 whole entry)": "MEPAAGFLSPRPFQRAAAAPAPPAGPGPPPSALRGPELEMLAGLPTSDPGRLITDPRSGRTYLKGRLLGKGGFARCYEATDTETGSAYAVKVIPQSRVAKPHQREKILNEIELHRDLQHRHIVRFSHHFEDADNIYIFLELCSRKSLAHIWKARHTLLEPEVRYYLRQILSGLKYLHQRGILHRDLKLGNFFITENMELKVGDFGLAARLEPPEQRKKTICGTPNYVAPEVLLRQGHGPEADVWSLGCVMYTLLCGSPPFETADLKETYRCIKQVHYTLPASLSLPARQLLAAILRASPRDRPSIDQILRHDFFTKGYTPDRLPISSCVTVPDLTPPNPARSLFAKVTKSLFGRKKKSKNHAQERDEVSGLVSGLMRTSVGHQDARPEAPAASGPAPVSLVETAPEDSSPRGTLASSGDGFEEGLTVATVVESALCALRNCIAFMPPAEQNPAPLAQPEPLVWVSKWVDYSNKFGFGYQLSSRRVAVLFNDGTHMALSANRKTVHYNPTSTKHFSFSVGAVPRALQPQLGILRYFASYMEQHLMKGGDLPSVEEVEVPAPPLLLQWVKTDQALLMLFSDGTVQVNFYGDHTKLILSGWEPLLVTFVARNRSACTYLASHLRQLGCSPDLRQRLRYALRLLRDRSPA", "procedure,_shortened": "as §1"}, "Txk(h)": {"target": "T7, Txk(h) (Homo sapiens, UniProt P42681)", "T7 sequence (P42681 1-527)": "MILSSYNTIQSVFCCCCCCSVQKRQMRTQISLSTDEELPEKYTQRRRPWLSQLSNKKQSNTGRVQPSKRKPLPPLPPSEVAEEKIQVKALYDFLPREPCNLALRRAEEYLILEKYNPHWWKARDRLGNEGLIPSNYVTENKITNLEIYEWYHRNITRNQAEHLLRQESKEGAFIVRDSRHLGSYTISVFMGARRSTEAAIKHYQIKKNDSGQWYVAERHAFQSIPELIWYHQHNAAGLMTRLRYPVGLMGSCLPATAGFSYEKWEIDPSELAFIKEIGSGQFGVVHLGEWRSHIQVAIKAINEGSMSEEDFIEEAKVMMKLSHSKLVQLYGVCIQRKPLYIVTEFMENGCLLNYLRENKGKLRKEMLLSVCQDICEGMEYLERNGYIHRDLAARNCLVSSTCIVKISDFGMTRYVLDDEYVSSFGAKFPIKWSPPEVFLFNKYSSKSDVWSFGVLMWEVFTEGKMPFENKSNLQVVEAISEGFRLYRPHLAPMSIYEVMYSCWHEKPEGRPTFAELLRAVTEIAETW", "procedure,_shortened": "as §1"}, "mTOR(h)": {"target": "mTOR(h) (Homo sapiens, UniProt P42345)", "procedure,_shortened": "as §1"}, "FGFR3(h)": {"target": "FGFR3(h) (Homo sapiens, UniProt P22607)", "sequence (P22607 23-806)": "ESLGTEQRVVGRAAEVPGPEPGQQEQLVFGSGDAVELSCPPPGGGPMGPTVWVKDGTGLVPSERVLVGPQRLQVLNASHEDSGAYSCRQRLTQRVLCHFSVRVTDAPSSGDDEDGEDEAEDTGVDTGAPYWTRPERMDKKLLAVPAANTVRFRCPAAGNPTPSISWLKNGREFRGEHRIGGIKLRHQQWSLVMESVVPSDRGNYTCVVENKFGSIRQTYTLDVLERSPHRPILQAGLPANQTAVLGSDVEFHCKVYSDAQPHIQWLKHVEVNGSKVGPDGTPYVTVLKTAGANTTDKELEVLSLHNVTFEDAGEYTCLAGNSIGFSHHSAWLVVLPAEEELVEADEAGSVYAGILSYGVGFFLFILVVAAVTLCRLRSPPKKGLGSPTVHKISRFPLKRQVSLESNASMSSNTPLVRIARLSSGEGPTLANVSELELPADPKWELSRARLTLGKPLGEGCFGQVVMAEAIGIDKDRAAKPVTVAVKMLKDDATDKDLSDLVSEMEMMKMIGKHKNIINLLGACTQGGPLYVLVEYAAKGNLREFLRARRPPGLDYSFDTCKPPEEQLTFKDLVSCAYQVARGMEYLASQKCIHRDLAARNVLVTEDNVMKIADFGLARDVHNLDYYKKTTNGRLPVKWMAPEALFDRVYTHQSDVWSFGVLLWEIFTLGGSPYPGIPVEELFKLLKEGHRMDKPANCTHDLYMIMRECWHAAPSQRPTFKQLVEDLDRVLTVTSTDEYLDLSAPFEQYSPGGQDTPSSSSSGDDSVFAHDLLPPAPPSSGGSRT", "procedure,_shortened": "as §1"}}, "data": [{"sequence": "FAKLAARLYRKALARQLGVAA [MMI-0300]", "values": [{"measurement": "DCAMKL2(h) % activity", "setting": "DCAMKL2(h)", "value": 81, "unit": "%"}, {"measurement": "GSK3β(h) % activity", "setting": "GSK3β(h)", "value": 205, "unit": "%"}, {"measurement": "JAK2(h) % activity", "setting": "JAK2(h)", "value": 133, "unit": "%"}, {"measurement": "MST1(h) % activity", "setting": "MST1(h)", "value": 14, "unit": "%"}, {"measurement": "PKCι(h) % activity", "setting": "PKCι(h)", "value": 68, "unit": "%"}, {"measurement": "Plk3(h) % activity", "setting": "Plk3(h)", "value": 127, "unit": "%"}, {"measurement": "Txk(h) % activity", "setting": "Txk(h)", "value": 48, "unit": "%"}, {"measurement": "mTOR(h) % activity", "setting": "mTOR(h)", "value": 91, "unit": "%"}]}, {"sequence": "KAFAKLAARLYRKALARQLGVAA [MMI-0400]", "values": [{"measurement": "DCAMKL2(h) % activity", "setting": "DCAMKL2(h)", "value": 70, "unit": "%"}, {"measurement": "FGFR3(h) % activity", "setting": "FGFR3(h)", "value": 0, "unit": "%"}, {"measurement": "GSK3β(h) % activity", "setting": "GSK3β(h)", "value": 202, "unit": "%"}, {"measurement": "MST1(h) % activity", "setting": "MST1(h)", "value": 6, "unit": "%"}, {"measurement": "PKCι(h) % activity", "setting": "PKCι(h)", "value": 46, "unit": "%"}, {"measurement": "Plk3(h) % activity", "setting": "Plk3(h)", "value": 129, "unit": "%"}, {"measurement": "Txk(h) % activity", "setting": "Txk(h)", "value": 37, "unit": "%"}, {"measurement": "mTOR(h) % activity", "setting": "mTOR(h)", "value": 93, "unit": "%"}]}, {"sequence": "HRRIKAWLKKIKALARQLGVAA (Mammalian) [MMI-0500]", "values": [{"measurement": "DCAMKL2(h) % activity", "setting": "DCAMKL2(h)", "value": 56, "unit": "%"}, {"measurement": "FGFR3(h) % activity", "setting": "FGFR3(h)", "value": 10, "unit": "%"}, {"measurement": "GSK3β(h) % activity", "setting": "GSK3β(h)", "value": 238, "unit": "%"}, {"measurement": "JAK2(h) % activity", "setting": "JAK2(h)", "value": 49, "unit": "%"}, {"measurement": "MST1(h) % activity", "setting": "MST1(h)", "value": 3, "unit": "%"}, {"measurement": "PKCι(h) % activity", "setting": "PKCι(h)", "value": 7, "unit": "%"}, {"measurement": "Plk3(h) % activity", "setting": "Plk3(h)", "value": 122, "unit": "%"}, {"measurement": "Txk(h) % activity", "setting": "Txk(h)", "value": 10, "unit": "%"}, {"measurement": "mTOR(h) % activity", "setting": "mTOR(h)", "value": 135, "unit": "%"}]}, {"sequence": "YARAAARQARAKALNRQLGVA (Mammalian) [MMI-0200]", "values": [{"measurement": "DCAMKL2(h) % activity", "setting": "DCAMKL2(h)", "value": 131, "unit": "%"}, {"measurement": "FGFR3(h) % activity", "setting": "FGFR3(h)", "value": 208, "unit": "%"}, {"measurement": "GSK3β(h) % activity", "setting": "GSK3β(h)", "value": 132, "unit": "%"}, {"measurement": "JAK2(h) % activity", "setting": "JAK2(h)", "value": 131, "unit": "%"}, {"measurement": "MST1(h) % activity", "setting": "MST1(h)", "value": 72, "unit": "%"}, {"measurement": "PKCι(h) % activity", "setting": "PKCι(h)", "value": 97, "unit": "%"}, {"measurement": "Txk(h) % activity", "setting": "Txk(h)", "value": 98, "unit": "%"}, {"measurement": "mTOR(h) % activity", "setting": "mTOR(h)", "value": 110, "unit": "%"}]}]}
